{"source": "patent US20230002466A1", "about": "(ELPIS BIOPHARMACEUTICALS, published 2023)", "key": {"[1]": {"target": "T1, human IL2Rα Fc fusion protein (human, UniProt P01589 22-213, limits assumed)", "T1 construct": "also called Recombinant Fc-tagged human IL2Rα; not shown: Fc", "T1 sequence (looked up)": "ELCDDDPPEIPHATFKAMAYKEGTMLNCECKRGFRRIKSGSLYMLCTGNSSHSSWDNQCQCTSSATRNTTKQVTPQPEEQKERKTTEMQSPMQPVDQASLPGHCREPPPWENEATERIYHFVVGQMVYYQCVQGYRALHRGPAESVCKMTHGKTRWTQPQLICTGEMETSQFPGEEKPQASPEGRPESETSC", "assay": "ELISA, single point, Fc-tagged human IL2Rα coated, anti-His-HRP; concentration not printed (Example 14)", "description": "Recombinant Fc-tagged human IL2Rα and IL2Rβ were added in 25 uL of 1×PBS to wells of 384-well plate and incubated overnight at 4° C. to coat the plates. Plates were washed three times with 0.05% Tween20/1×PBS. Plates were blocked with 100 uL of SuperBlock for 1 hr at RT and then washed 3 times with 0.05% Tween20/1×PBS. IL2 mutants were diluted in 0.05% Tween 20/1×PBS from 1000 nM to 0 nM and added to plates for 2 hrs at room temperature. Plates were then washed 6 times with 0.05% Tween20/1×PBS. Anti-HisTag-HRP was diluted 1:5000 in 0.05% Tween20/1×PBS and added to plates for 1 hr at RT. Plates were then washed 6 times with 0.05% Tween 20/1×PBS, and TMB was added to develop blue color. Reactions were stopped with 2N […] and light absorbance at 450 nm was read on a BioTek plate reader."}, "[2]": {"target": "T2, human IL2Rβ Fc fusion protein (human, UniProt P14784 27-239)", "T2 construct": "also called Recombinant Fc-tagged human IL2Rβ; not shown: Fc", "T2 sequence (looked up)": "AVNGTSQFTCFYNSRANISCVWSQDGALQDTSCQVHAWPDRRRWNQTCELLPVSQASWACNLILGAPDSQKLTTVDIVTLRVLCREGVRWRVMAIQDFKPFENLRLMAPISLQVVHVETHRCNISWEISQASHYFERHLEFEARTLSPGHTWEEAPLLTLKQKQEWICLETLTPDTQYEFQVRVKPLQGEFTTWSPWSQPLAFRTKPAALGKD", "assay": "ELISA, Fc-tagged receptor coated, anti-HisTag-HRP", "procedure,_shortened": "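IL2 mutants, diluted from 1000 nM to 0 nM, were incubated 2 h at RT on plates coated overnight at 4 °C with Fc-tagged human IL2Rα (or IL2Rβ). Bound protein detected with anti-HisTag-HRP (1:5000, 1 h) and TMB. Absorbance read at 450 nm after acid stop.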"}, "human IL2Rβ [3]": {"target": "T3, human IL2Rβ (human, UniProt P14784 27-239)", "T3 construct": "also called IL2β; CD122", "T3 sequence (looked up)": "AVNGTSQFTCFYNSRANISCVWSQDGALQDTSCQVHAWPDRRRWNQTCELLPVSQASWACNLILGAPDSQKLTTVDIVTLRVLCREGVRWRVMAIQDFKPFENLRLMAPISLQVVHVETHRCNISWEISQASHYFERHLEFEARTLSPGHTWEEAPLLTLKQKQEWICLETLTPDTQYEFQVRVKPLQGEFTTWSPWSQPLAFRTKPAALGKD", "assay": "SPR, single concentration"}, "human IL2Rα [4]": {"target": "T4, human IL2Rα (human, UniProt P01589 22-213, limits assumed)", "T4 construct": "also called IL2α; CD25", "T4 sequence (looked up)": "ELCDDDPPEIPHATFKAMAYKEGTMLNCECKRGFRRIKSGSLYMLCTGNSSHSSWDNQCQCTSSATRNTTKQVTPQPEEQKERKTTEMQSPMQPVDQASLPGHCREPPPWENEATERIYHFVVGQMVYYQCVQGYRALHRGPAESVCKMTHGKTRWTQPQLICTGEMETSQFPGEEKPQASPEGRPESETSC", "assay": "SPR (Biacore T200), human IL2Rα, single concentration of the IL2 protein, not printed (Example 13)"}, "human IL2Rβ [5]": {"target": "T3, human IL2Rβ", "assay": "SPR, receptor captured on Protein A chip, mammalian-produced IL2", "description": "The assay was run with Biacore T200 control software version 2.0. For each cycle, 1 μg/mL of human IL2Rβ or IL2Rα was captured for 60 seconds at flow rate of 10 μL/min on flow cell 2 in 1×HBST buffer on Protein A sensor chip. Two-fold serial diluted HIS tag purified engineered IL2 mutant was injected onto both reference flow cell 1 and IL2Rβ or IL2Rα captured flow cell 2 for 150 seconds at flow rate of 30 μL/min followed by washing for 300 seconds. The flow cells were then regenerated with Glycine pH 2 for 40 seconds at a flow rate of 30 μL/mins. Eight concentration points from 0 to 100 nM were assayed for each IL2Rβ agonist clone 96-well plate format. The kinetics data was analyzed with Biacore T200 evaluation software 3000. The specific binding response unit was derived from subtraction of binding to reference flow cell 1 from target flow cell 2."}, "[6]": {"target": "T2, human IL2Rβ Fc fusion protein", "assay": "ELISA, receptor-Fc coated, anti-Flag HRP", "procedure,_shortened": "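Plates coated overnight at 4 C with IL2Rα or IL2Rβ Fc fusion at 2 ug/mL, then blocked. Flag-tagged IL2 mutant dilutions were added in duplicate, and binding was detected with anti-Flag HRP (1:5000) and TMB for 5 min. EC50 was fitted from OD450.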"}, "human IL2Rβ [7]": {"target": "T3, human IL2Rβ", "assay": "SPR, IL2Rβ captured on Protein A chip", "description": "The assay was run with Biacore T200 control software version 2.0. For each cycle, 1 ug/mL of human IL2Rβ was captured for 60 seconds at flow rate of 10 uL/min on flow cell 2 in 1×HBSP buffer on Protein A sensor chip. 100 nM of HIS and Flag tag purified each IL2 mutant was 2-fold serial diluted and injected onto both reference flow cell 1 and IL2Rβ captured flow cell 2 for 150 seconds at flow rate of 30 uL/min followed by washing for 300 seconds. The flow cells were then regenerated with Glycine pH2 for 60 seconds at a flow rate of 30 uL/min. The assay was set up with 8 serial diluted concentration points in 96-well format. The kinetics data was analyzed with Biacore T200 evaluation software 3.0. The specific binding response unit was derived from subtraction of binding to reference flow cell 1 from target flow cell 2 (FIGS. 16A-16F, Table 10)."}, "human IL2Rβ [8]": {"target": "T3, human IL2Rβ", "assay": "SPR, receptor captured on Protein A chip, E. coli-produced IL2"}, "[9]": {"target": "T1, human IL2Rα Fc fusion protein", "assay": "ELISA, receptor-Fc coated, anti-Flag HRP; Table 9 ELISA: titration 100 nM to 0 nM, anti-Flag HRP detection", "description": "Briefly, 384 well plate was immobilized with human IL2Rα and IL2Rβ Fc fusion proteins at a final concentration of 2 ug/mL in 1×PBS in total volume of 25 uL per well. The plate was incubated overnight at 4 C and blocked with 80 uL of superblock per well for 1 hour. […] Each dilution was added to IL2Rα or IL2Rβ wells in parallel in duplicates. The IL2 mutant binding was detected by adding 25 uL of anti-Flag HRP diluted at 1:5000 in 1×PBST. In between each step, the plate was washed three times with 1×PBST using a plate washer. The plate was then developed with 25 uL of TMB substrate for five minutes and stopped by adding 25 ul of 2N sulfuric acid. The plate was read at OD450 nm Biotek plate reader and the EC50 was analyzed with Prism 8.1 software to generate EC50 values (FIG. 15A for IL2Rα, and FIG. 15B for IL2Rβ, summarized in Table 9)."}, "human IL2Rβ [10]": {"target": "T3, human IL2Rβ", "assay": "SPR, IL2Rβ captured on Protein A chip", "description": "Kinetic analysis of the receptor binding activities of IL2Rβ agonist with IL2Rα reduced activity mutations have been assessed by SPR technology with Biacore T200. The assay was run with Biacore T200 control software version 2.0. For each cycle, 1 ug/mL of human IL2Rβ was captured for 60 seconds at flow rate of 10 ul/min on flow cell 2 in 1×HBSP buffer on Protein A sensor chip. 100 nM of HIS and Flag tag purified each IL2 mutant was 2 fold serial diluted and injected onto both reference flow cell 1 and IL2Rβ captured flow cell 2 for 150 seconds at flow rate of 30 ul/mins followed by wash for 300 seconds. The flow cells were then regenerated with Glycine pH2 for 60 seconds at flow rate of 30 ul/mins. The assay was set up with 8 serial diluted concentration points in 96 well format. The kinetics data was analyzed with Biacore T200 evaluation software 3.0. The specific binding response unit was derived from subtraction of binding to reference flow cell 1 from target flow cell 2.", "remark": "listed apart in the source"}, "human IL2Rα [11]": {"target": "T4, human IL2Rα", "assay": "SPR (Biacore T200), human IL2Rα, IL2 mutant in two-fold dilutions from 100 nM (Example 13)"}}}
{"binder": "EP341 (ligand) APTSSSTKKTQLQLEHLLLDLQMILNGINNYKNPKLTDMLTFKFSMPKKATELKHLQCLEEELKPLEEVLNLAQSKNFHLTARDAIDNINVIVQELKGSETTFMCEYADETATIVEFLNRWITFSQSIISTLTGSHHHHHH", "values": [{"measurement": "binding result", "setting": "[1]", "result": "no binding (tested: not printed)"}, {"measurement": "EC50", "setting": "[2]", "result": 64.1, "unit": "nM"}, {"measurement": "Kd", "setting": "human IL2Rβ [3]", "result": 2.54, "unit": "nM"}, {"measurement": "binding result", "setting": "human IL2Rα [4]", "result": "no binding (tested: single concentration, not printed)"}]}
{"binder": "EP001 (ligand, Produced in E. coli or mammalian cells; also called EP0001; not shown: C-terminal Flag and 6xHis tags) APTSSSTKKTQLQLEHLLLDLQMILNGINNYKNPKLTRMLTFKFYMPKKATELKHLQCLEEELKPLEEVLNLAQSKNFHLTARDAVDNMRVIIQELKGSETTFMCEYADETATIVEFLNRWITFCQSIISTLT", "values": [{"measurement": "Kd", "setting": "human IL2Rβ [5]", "result": 0.743, "unit": "nM"}, {"measurement": "koff", "setting": "human IL2Rβ [5]", "result": 0.00417, "unit": "s⁻¹"}, {"measurement": "kon", "setting": "human IL2Rβ [5]", "result": "5.61e+06", "unit": "M⁻¹ s⁻¹"}, {"measurement": "relative activity IL2Rβ (KD: fold) against WT IL2", "setting": "human IL2Rβ [5]", "result": 1360, "unit": "fold"}, {"measurement": "EC50", "setting": "[6]", "result": 0.7, "unit": "nM"}, {"measurement": "Kd", "setting": "human IL2Rβ [7]", "result": 1.52, "unit": "nM"}, {"measurement": "koff", "setting": "human IL2Rβ [7]", "result": 0.00589, "unit": "s⁻¹"}, {"measurement": "kon", "setting": "human IL2Rβ [7]", "result": "3.86e+06", "unit": "M⁻¹ s⁻¹"}, {"measurement": "Kd", "setting": "human IL2Rβ [8]", "result": 1.12, "unit": "nM"}, {"measurement": "koff", "setting": "human IL2Rβ [8]", "result": 0.00365, "unit": "s⁻¹"}, {"measurement": "kon", "setting": "human IL2Rβ [8]", "result": "3.26e+06", "unit": "M⁻¹ s⁻¹"}, {"measurement": "relative activity IL2Rβ (KD: fold) against WT IL2", "setting": "human IL2Rβ [8]", "result": 3890, "unit": "fold"}, {"measurement": "EC50", "setting": "[2]", "result": 8.1, "unit": "nM"}, {"measurement": "EC50", "setting": "[9]", "result": 259, "unit": "nM"}]}
{"binder": "EP408 (ligand, not shown: His and Flag tags) APTSSSTKKTQLQLEHLLLDLQMILNGINNYKNPKLTDMLTFKFSMPKKATELKHLQCLEEELKPLEEVLNLAQSKNFHLGVTDSISNAIVLARELKGSETTFMCEYADETATIVEFLNRWITFCQSIISTLT", "values": [{"measurement": "Kd", "setting": "human IL2Rβ [10]", "result": 0.233, "unit": "nM"}, {"measurement": "koff", "setting": "human IL2Rβ [10]", "result": 0.000598, "unit": "s⁻¹"}, {"measurement": "kon", "setting": "human IL2Rβ [10]", "result": "2.56e+06", "unit": "M⁻¹ s⁻¹"}, {"measurement": "binding result", "setting": "human IL2Rα [11]", "result": "no binding (tested: 100 nM)"}]}
